# PMC7396682, “Effect of a Novel Alpha/Beta Hydrolase Domain Protein on Tolerance of K. marxianus to Lignocellulosic Biomass Derived Inhibitors” (Frontiers in Bioengineering and Biotechnology, 2020)
# B1: KmYME (Kluyveromyces marxianus DMKU3-1042) (protein)
# chain: MLLAYTVRPSNWSFTRRAYSATARAFNQQKGLLPLPIKETVDMAYDLHLPERSVIGKMPYHSPEPIIFYHGLLGSKRNYRHDCKKLATALQTPVYTVDIRNHGSSEHALPFDYNTLVNDLVHFAETHSLGKVNLVGYSLGAKVAMLACLKHPERFSAACIIDNSPEEQPHIKPLLTALVKSCVKLLDHHNVRADDKLWRHKASEALKKYIPDAGIRYYLLSNIINNPRVVEYRSPVINYDDGMLHFKNPVRHMMDFVTKEVAAWPTQELEGKQFLGPVNFIKATRSDFINPKSLQAINQYFPYHNIDEINATHFILNERPQEYLRAVTDFFKVTRYQLEKKREQDLAKIDQLNASESLKSARD
# notes: expressed from pWD010 (T7 promoter) in E. coli BL21(DE3), nickel-column purified (tag not described); native full length 360 aa
# B2: KmYME (Kluyveromyces marxianus DMKU3-1042; L139M/Y137H) (protein)
# chain: MLLAYTVRPSNWSFTRRAYSATARAFNQQKGLLPLPIKETVDMAYDLHLPERSVIGKMPYHSPEPIIFYHGLLGSKRNYRHDCKKLATALQTPVYTVDIRNHGSSEHALPFDYNTLVNDLVHFAETHSLGKVNLVGHSMGAKVAMLACLKHPERFSAACIIDNSPEEQPHIKPLLTALVKSCVKLLDHHNVRADDKLWRHKASEALKKYIPDAGIRYYLLSNIINNPRVVEYRSPVINYDDGMLHFKNPVRHMMDFVTKEVAAWPTQELEGKQFLGPVNFIKATRSDFINPKSLQAINQYFPYHNIDEINATHFILNERPQEYLRAVTDFFKVTRYQLEKKREQDLAKIDQLNASESLKSARD
# notes: as for B1
# Tests used:
# Assay in all cases: purified protein
# Type in all cases: biochemical, Kluyveromyces marxianus
# purified protein [1] = substrate: CC(=O)Oc1ccc([N+](=O)[O-])cc1; conditions: 50 mM Tris-HCl, pH 8.0, 37 °C
# purified protein [2] = substrate: CC(C)(COP(=O)(O)OP(=O)(O)OC[C@H]1O[C@@H](n2cnc3c(N)ncnc32)[C@H](O)[C@@H]1OP(=O)(O)O)[C@@H](O)C(=O)NCCC(=O)NCCSC(=O)CCC(=O)O; conditions: 100 mM HEPES, pH 8.0, 37 °C, 1 mM DTNB
# purified protein [3] = substrate: CCCC(=O)Oc1ccc([N+](=O)[O-])cc1; conditions: 50 mM Tris-HCl, pH 8.0, 37 °C
# purified protein [4] = substrate: CCCC(=O)SCCNC(=O)CCNC(=O)[C@H](O)C(C)(C)COP(=O)(O)OP(=O)(O)OC[C@H]1O[C@@H](n2cnc3c(N)ncnc32)[C@H](O)[C@@H]1OP(=O)(O)O; conditions: 100 mM HEPES, pH 8.0, 37 °C, 1 mM DTNB
# purified protein [5] = substrate: CCCCCCCCCC(=O)SCCNC(=O)CCNC(=O)[C@H](O)C(C)(C)COP(=O)(O)OP(=O)(O)OC[C@H]1O[C@@H](n2cnc3c(N)ncnc32)[C@H](O)[C@@H]1OP(=O)(O)O; conditions: 100 mM HEPES, pH 8.0, 37 °C, 1 mM DTNB
protein,measurement,setting,value
B1,Km,purified protein [1],189.73 ± 12.20 µM
same,Km,purified protein [2],387.58 ± 3.42 µM
same,Km,purified protein [3],258.41 ± 5.97 µM
same,Km,purified protein [4],468.44 ± 20.62 µM
same,Km,purified protein [5],329.20 ± 12.75 µM
B2,Km,purified protein [1],193.89 ± 10.00 µM
same,Km,purified protein [2],1022.84 ± 145.83 µM
same,Km,purified protein [3],685.66 ± 34.83 µM
same,Km,purified protein [4],1138.20 ± 185.83 µM
same,Km,purified protein [5],449.88 ± 87.78 µM
